Results on five molecules are retold here after US20210292422A1 (SURROZEN, published 2021).

One assay concerns the target T1, LRP6e3e4 (UniProt O75581 631-1246).
T1 construct: domain: e3e4; also called LRP6 E3E4 domain
T1 sequence (looked up): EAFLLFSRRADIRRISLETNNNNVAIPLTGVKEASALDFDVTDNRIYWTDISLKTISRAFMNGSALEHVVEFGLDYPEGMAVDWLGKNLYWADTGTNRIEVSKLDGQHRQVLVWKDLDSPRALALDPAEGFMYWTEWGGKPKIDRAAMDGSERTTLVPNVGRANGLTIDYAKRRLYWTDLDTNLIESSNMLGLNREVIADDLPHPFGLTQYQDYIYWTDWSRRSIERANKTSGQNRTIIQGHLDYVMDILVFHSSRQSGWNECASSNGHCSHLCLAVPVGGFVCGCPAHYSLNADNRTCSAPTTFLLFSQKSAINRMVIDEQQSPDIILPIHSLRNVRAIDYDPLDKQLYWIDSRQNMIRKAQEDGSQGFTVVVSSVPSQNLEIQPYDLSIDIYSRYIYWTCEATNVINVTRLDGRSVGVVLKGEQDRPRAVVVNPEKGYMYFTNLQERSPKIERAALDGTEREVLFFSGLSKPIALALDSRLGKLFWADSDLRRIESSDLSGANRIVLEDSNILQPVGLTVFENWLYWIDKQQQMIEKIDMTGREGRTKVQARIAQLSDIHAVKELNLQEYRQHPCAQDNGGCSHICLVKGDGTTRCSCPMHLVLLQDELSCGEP
Put plainly: column 'Specificity (Clone name)' of the component table; method not given there.

A further assay concerns the target T2, LRP6e1e2 (UniProt O75581 20-630).
T2 construct: domain: e1e2; also called LRP6 E1E2 domains
T2 sequence (looked up): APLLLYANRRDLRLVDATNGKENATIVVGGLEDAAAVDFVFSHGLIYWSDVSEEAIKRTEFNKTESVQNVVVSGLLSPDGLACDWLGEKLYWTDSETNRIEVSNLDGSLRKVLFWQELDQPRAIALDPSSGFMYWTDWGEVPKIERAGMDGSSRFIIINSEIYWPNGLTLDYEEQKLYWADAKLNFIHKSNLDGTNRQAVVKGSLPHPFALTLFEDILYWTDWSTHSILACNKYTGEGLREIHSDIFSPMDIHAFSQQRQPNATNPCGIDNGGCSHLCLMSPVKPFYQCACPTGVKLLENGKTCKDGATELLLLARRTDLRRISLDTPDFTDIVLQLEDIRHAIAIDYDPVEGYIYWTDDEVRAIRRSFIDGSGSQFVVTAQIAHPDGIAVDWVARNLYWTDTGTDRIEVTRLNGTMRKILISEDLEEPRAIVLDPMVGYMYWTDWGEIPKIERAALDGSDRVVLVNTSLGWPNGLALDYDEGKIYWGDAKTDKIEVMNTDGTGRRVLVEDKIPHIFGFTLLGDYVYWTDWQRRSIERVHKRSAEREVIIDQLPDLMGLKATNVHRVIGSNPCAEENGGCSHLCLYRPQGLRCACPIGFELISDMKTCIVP
The description is as above.

A further assay has as its target Fzd7 CRD (UniProt O75084 44-163). Put plainly: BLI (Octet Red 96), biotinylated Fzd7 CRD on SA biosensor. Here is the method: Following capture of biotinylated-Fzd7, the SA biosensor with captured biotinylated-Fzd7 was dipped into wells containing the relevant antibodies at 7 different concentrations in running buffer plus a well with only running buffer as a reference channel. KD was determined by global fitting.

A further assay has as its target Frizzled 7 (Fzd7) (UniProt O75084 44-163). Kind of assay: BLI (Octet), FIG. 15A. (In general: BLI is a label-free optical method that tracks binding on a fibre tip over time.)

B1: L2: antiLRP6E3E4 (G211) scFv (scFv)
scFv: EVQLVESGGGLVQPGGSLRLSCAASGFTFTSYYISWVRQAPGKGLEWVAEISPYSGSTYYADSVKGRFTISADTSKNTAYLQMNSLRAEDTAVYYCALRARPPIRLHPRGSVMDYWGQGTLVTVSSGSAASGSSGGSSSGADIQMTQSPSSLSASVGDRVTITCRASQDVSTAVAWYQQKPGKAPKLLIYSASFLYSGVPSRFSGSGSGTDFTLTISSLQPEDFATYYCQQSYTTPPTFGQGTKVEIK
notes: also called YW211.31.57
With B1, in the assay with LRP6e3e4, the binding result is recorded as “binds”.

B2: L1: antiLRP6E1E2 (1115.3) scFv (scFv)
scFv: DVKLVESGGGLVKLGGSLRLSCAASGFSFSTSYMSWVRQTPEKRLELVAAINLNGGSTYYSDTVKGRFTISRDNAKNTLYLQMSSLKSEDTAFYYCASELAGYGTPFAYWGQGTLVTVSAGSAASGSSGGSSSGADIVLTQSPATLSVTPGDSVSLSCKASQSISYNLHWYQQKSHESPRLLIKYTSQSISGIPSRFSGSGSGTDFTLTINNVETEDFGMYFCQQSNSWPLTFGAGTKLEVK
In the case of B2, the binding result with LRP6e1e2 is “binds”.

B3: 1791-3 (bispecific antibody, human IgG1, kappa, L234A L235A)
light: DVQLVESGGGLVQPGGSLRLSCTSSANINSIETLGWYRQAPGKQRELIANMRGGGYMKYAGSLKGRFTMSTESAKNTMYLQMNSLKPEDTAVYYCYVKLRDDDYVYRGQGTQVTVSSGSGSGDIVMTQSPKSMSMSVGERVTLRCKASENVLNYVSWYQQKPEQSPKLLIYGASNRYTGVPDRFTGSGSATDFTLTISSVQAEDLADYHCGQSYRYPTFGAGTKLELKRTVAAPSVFIFPPSDEQLKSGTASVVCLLNNFYPREAKVQWKVDNALQSGNSQESVTEQDSKDSTYSLSSTLTLSKADYEKHKVYACEVTHQGLSSPVTKSFNRGEC
heavy: EVQPVESGGGLVQPKGSLKLSCAASGFTFNTYAMHWVRQAPGKGLEWVARIRSKSNNYAKNYDDSVKDRFTISRDDSQSMLYLQMNNLKTEDTAMYYCVRENYGGRFDYWGQGTTLTVSSASTKGPSVFPLAPSSKSTSGGTAALGCLVKDYFPEPVTVSWNSGALTSGVHTFPAVLQSSGLYSLSSVVTVPSSSLGTQTYICNVNHKPSNTKVDKKVEPKSCDKTHTCPPCPAPEAAGGPSVFLFPPKPKDTLMISRTPEVTCVVVDVSHEDPEVKFNWYVDGVEVHNAKTKPREEQYNSTYRVVSVLTVLHQDWLNGKEYKCKVSNKALGAPIEKTISKAKGQPREPQVYTLPPSREEMTKNQVSLTCLVKGFYPSDIAVEWESNGQPENNYKTTPPVLDSDGSFFLYSKLTVDKSRWQQGNVFSCSVMHEALHNHYTQKSLSLSPGK
Take B3: the binding result with Fzd7 CRD was “no binding”.

B4: 1291-3 (bispecific antibody, human IgG1, kappa, L234A L235A)
light: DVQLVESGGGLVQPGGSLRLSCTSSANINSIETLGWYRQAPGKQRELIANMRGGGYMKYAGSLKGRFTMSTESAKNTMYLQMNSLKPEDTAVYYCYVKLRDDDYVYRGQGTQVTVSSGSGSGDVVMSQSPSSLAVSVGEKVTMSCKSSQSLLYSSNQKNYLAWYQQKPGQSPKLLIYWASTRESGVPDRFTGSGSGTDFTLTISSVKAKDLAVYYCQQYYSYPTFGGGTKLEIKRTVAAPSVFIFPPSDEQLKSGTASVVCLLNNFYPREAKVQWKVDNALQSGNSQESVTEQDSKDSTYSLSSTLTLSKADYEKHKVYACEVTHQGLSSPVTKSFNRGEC
heavy: EVQLVESGGGLVKPGGSLKLSCAASGFTFSSYAMSWVRQTPEKRLEWVATISDGGSYTRYPDKLKGRFTISRDNAKNNLYLQMSHLKSEDTAMYYCARVGGRRDYFDYWGQGTTLTVSSASTKGPSVFPLAPSSKSTSGGTAALGCLVKDYFPEPVTVSWNSGALTSGVHTFPAVLQSSGLYSLSSVVTVPSSSLGTQTYICNVNHKPSNTKVDKKVEPKSCDKTHTCPPCPAPEAAGGPSVFLFPPKPKDTLMISRTPEVTCVVVDVSHEDPEVKFNWYVDGVEVHNAKTKPREEQYNSTYRVVSVLTVLHQDWLNGKEYKCKVSNKALGAPIEKTISKAKGQPREPQVYTLPPSREEMTKNQVSLTCLVKGFYPSDIAVEWESNGQPENNYKTTPPVLDSDGSFFLYSKLTVDKSRWQQGNVFSCSVMHEALHNHYTQKSLSLSPGK
With B4, the binding result with Fzd7 CRD is recorded as “no binding”.

B5: F2 (R2H1) (scFv)
scFv: EVQLVESGGGLVQPGGSLRLSCAASGFNISSSYIHWVRQAPGKGLEWVAYIYSSYGSTYYADSVKGRFTISADTSKNTAYLQMNSLRAEDTAVYYCARASWYALDYWGQGTLVTVSSGSAASGSSGGSSSGADIQMTQSPSSLSASVGDRVTITCRASQSVSSAVAWYQQKPGKAPKLLIYSASSLYSGVPSRFSGSRSGTDFTLTISSLQPEDFATYYCQQYWYGVAPITFGQGTKVEIK
notes: also called antiFZD1,2,7
B5: the binding result in the assay with Frizzled 7 (Fzd7) is reported as “binds”.
